Laboratory results: patent US20200317817A1 (XOMA US, published 2020)

Key:
[1] = target: T1, human PTH1R on Saos-2 cells (endogenous) (human, UniProt Q03431 27-593); assay: cell-based or functional assay
T1 sequence (looked up): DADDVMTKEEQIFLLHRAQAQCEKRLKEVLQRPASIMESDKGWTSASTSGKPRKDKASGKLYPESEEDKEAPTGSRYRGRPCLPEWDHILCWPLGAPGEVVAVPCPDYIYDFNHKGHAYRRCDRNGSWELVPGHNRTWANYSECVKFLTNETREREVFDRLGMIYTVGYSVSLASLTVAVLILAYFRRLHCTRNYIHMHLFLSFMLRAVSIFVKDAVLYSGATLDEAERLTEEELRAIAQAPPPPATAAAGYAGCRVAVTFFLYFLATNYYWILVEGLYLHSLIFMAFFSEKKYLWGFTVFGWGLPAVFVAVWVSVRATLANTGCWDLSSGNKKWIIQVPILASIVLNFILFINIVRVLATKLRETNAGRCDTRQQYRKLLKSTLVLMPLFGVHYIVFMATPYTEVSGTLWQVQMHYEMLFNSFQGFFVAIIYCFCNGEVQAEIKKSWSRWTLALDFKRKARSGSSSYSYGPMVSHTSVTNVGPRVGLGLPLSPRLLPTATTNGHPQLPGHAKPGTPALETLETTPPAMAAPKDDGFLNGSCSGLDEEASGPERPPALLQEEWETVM

[2] = target: T2, human PTH1R overexpressed on CHO cells (human, UniProt Q03431 27-593); assay: cell-based or functional assay
T2 sequence (looked up): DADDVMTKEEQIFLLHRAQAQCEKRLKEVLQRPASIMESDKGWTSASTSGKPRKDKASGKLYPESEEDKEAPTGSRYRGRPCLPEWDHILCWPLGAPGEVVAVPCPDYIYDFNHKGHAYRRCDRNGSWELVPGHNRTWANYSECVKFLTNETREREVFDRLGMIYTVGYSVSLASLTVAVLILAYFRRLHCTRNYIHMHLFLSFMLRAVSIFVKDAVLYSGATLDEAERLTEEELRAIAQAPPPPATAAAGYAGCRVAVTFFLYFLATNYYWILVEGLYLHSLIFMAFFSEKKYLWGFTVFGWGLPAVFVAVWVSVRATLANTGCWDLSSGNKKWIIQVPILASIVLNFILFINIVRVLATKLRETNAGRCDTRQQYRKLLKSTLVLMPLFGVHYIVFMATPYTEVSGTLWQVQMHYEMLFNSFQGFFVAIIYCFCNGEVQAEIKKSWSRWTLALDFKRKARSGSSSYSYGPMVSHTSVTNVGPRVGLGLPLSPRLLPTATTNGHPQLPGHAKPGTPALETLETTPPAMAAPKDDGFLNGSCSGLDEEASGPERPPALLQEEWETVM

[3] = target: T3, mouse PTH1R overexpressed on CHO cells (mouse, UniProt P41593 27-591); assay: cell-based or functional assay
T3 sequence (looked up): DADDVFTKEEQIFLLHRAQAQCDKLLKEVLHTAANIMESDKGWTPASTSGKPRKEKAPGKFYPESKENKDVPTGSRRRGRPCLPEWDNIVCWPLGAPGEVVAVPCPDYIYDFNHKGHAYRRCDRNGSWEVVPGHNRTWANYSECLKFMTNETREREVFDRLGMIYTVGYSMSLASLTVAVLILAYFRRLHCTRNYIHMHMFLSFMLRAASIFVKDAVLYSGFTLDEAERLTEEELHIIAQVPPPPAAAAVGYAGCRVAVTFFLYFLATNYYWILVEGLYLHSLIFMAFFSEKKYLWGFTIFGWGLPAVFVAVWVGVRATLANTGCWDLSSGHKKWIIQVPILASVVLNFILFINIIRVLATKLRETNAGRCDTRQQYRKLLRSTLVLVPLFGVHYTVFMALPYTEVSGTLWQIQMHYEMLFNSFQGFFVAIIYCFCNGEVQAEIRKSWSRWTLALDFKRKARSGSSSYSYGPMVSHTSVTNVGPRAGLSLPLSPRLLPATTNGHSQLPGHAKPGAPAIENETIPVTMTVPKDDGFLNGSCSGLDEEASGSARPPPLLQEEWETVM

[4] = target: T4, recombinant N-terminal extracellular domain of the human PTH1R receptor (human, UniProt Q03431 27-188, limits assumed); assay: SPR, IgG captured, ECD injected
T4 construct: domain: N-terminal extracellular domain; Bought reagent; also called N-ECD PTH1R; PTH1R N-terminal ECD
T4 sequence (looked up): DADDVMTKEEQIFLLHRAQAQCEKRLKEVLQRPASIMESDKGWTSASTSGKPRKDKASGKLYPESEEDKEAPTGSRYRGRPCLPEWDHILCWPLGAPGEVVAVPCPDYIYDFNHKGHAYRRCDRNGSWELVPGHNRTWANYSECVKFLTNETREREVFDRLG
Outline: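 Antibodies (0.5 μg/mL) captured on anti-human IgG-Fc chip to 100–200 RU in HBS-EP+ with 2.5 mg/mL BSA; receptor ECD injected at 30 μL/minute for 240 s, 360 s dissociation, 3M MgCl regeneration. Double-referenced data fit globally for ka and kd; KD=kd/kₐ.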

[5] = target: T5, human PTH2R overexpressed on CHO cells (human, UniProt P49190 25-550); assay: flow cytometry on CHO cells overexpressing human PTH2R, 1 hr at 4 C, APC anti-human IgG
T5 construct: whole, on cells; also called CHO human PTH2R
Procedure: Increasing concentrations of anti-PTH1R antibodies were added to CHO cells overexpressing human PTH2R and incubated for 1 hr at 4° C. (FIG. 8). Cells were washed twice with FACS Buffer and antibody binding was detected with anti-human IgG APC. […] Anti-KLH.G2 was used a negative control for binding.
PTH2R has a 51% homology to PTH1R. […] Following two washes, cells were incubated with Allophycocyanin (APC) AffiniPure F(ab′)₂ Fragment Goat Anti-Human IgG (H+L) (Jackson ImmunoResearch, West Grove, Pa.) for 20 minutes at 4° C. Cells were washed twice and resuspended in FACS Buffer. Samples were acquired using BD Cytometer (BD Biosciences, San Jose, Calif.) and data were analyzed using FlowJo (FlowJo, LLC, Ashland, Oreg.) and Prism (GraphPad Software, La Jolla, Calif.). […] Anti-KLH.G2 was used a negative control for binding.

[6] = target: T6, human PTH1R overexpressed on Saos-2 cells (human, UniProt Q03431 27-593); assay: flow cytometry on Saos-2 cells overexpressing human PTH1R, antibody alone, PE anti-human IgG
T6 construct: whole, on cells; also called Saos-2 human PTH1R cells
T6 sequence (looked up): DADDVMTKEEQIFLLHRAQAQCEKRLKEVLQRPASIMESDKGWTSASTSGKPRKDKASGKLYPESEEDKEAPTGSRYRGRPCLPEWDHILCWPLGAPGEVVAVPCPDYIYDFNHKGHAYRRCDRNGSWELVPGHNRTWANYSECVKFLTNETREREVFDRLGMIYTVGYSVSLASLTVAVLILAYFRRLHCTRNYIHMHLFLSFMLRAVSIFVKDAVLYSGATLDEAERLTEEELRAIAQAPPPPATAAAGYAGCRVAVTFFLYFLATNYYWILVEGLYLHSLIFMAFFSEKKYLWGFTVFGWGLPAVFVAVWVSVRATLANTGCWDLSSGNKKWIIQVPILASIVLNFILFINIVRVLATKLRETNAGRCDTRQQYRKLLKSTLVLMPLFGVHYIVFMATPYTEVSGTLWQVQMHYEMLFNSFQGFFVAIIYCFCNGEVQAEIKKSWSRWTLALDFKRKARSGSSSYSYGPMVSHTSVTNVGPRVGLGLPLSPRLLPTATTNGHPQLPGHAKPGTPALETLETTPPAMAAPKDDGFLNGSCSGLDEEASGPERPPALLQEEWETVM

[7] = target: T6, human PTH1R overexpressed on Saos-2 …; assay: flow cytometry on Saos-2 cells overexpressing human PTH1R, in the presence of 1 uM PTH, PE anti-human IgG
[8] = target: T6, human PTH1R overexpressed on Saos-2 …; assay: flow cytometry on Saos-2 cells overexpressing human PTH1R, in the presence of 3 uM PTHrP, PE anti-human IgG
Source text: Antibody binding was detected with R-Phycoerythrin anti-human IgG.

T5 sequence (P49190 25-550): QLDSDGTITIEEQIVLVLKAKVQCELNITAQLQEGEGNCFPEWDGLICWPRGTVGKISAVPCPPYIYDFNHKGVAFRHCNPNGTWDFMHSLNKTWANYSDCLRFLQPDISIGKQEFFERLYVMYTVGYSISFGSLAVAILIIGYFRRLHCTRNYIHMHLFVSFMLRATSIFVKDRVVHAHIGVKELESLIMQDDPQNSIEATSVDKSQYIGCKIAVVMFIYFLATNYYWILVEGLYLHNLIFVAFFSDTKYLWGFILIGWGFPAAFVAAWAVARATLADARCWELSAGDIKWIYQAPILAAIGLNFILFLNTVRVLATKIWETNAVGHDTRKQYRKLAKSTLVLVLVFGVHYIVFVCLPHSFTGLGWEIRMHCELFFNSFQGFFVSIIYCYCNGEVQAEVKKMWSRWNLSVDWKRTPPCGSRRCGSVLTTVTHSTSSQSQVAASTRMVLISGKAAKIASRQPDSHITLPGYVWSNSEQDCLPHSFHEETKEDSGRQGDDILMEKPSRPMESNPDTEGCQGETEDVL

- EC50 of antibody, neutralization of M-CSF production induced by 12.5 nM PTHrP (1-36) [1]: 6.6 nM
- fold shift of the PTHrP (1-36) dose response, M-CSF secretion by Saos-2 cells, 40 µg/mL antibody [1]: > 200 fold
- IC50, inhibition of PTH(1-34)-induced cAMP accumulation [2]: 11.8 nM
- IC50, inhibition of PTHrP(1-34)-induced cAMP accumulation [2]: 7.06 nM
- IC50, inhibition of PTHrP(1-34)-induced cAMP accumulation [3]: 2.23 nM
- Kd [4]: 0.32 nM
- koff [4]: 0.00018 s⁻¹
- kon [4]: 560000 M⁻¹ s⁻¹
- binding result [5]: no binding (tested: about 160 nM)
- EC50 [6]: 4.4 nM
- EC50 [7]: 67.4 nM
- EC50 [8]: 465 nM
B1: XPA.85.328 (antibody, V domains shown)
VH: QMQLVQSGAEVKKPGSSVKVSCKASGGTFSSYAISWVRQAPGQGLEWMGGIIPIFGTANYAQKFQGRVTITADESTSTAYMELSSLRSEDTAVYYCARGYVVARLWGQGTLVTVSS
VL: DVVMTQTPLSLSVTPGQPASISCKSSQSLLHIDGKTYLYWYLQKSGQSPQLLIYEVSNRFSGVPDTFSGSGSGTDFTLKISRVEAEDVGVYYCMQSLHFPITFGQGTRLEIK
notes: IgG; also called Ab328
